Data reported in the supplement of paper PMC7877785.
± gives the uncertainty stated by the source.

Assay: self-splicing fitness, log relative to wild type (ln ratio); higher = more splicing; Tetrahymena group I intron in knt gene, E. coli kanamycin selection, DiMSum; sequences stand for … in CUCUCU…GGAGGGAAAAGUUAUCAGGCAUGCACCUGGUAGCUAGUCUUUAAACCAAUAGAUUGCAUCGGUUUAAAAGGCAAGACCGUCAAAUUGCGGGAAAGGGGUCAACAGCCGUUCAGUACCAAGUCUCAGGGGAAACUUUGAGAUGGCCUUGCAAAGGGUAUGGUAAUAAGCUGACGGACAUGGUCCUAACCACGCAGCCAAGUCCUAAGUCAACAGAUCUUCUGUUGAUAUGGAUGCAGUUCACAGACUAAAUGUCGGUCGGGGAAGAUGUAUUCUUCUCAUAAGAUAUAGUCGGACCUCUCCUUAAUGGGAGCUAGCGGAUGAAGUGAUGCAACACUGGAGCCGCUGGGAACUAAUUUGUAUGCGAAAGUAUAUUGAUUAGUUUUGGAGUACUCGUGGUCG
How it was run: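 Pooled colonies went to amplicon sequencing on an Illumina HiSeq 2500 after six replicate transformations. The plates were LB agar with 100 μg/mL carbenicillin, 50 μM IPTG and 0.2% rhamnose, with or without 25 μg/mL kanamycin, incubated overnight at 37°C or 30°C. The E. coli BL21(DE3) library had all eight P1ex-region intron nucleotides randomised, the intron placed in the knt kanamycin-resistance gene on pET-22b(+). DiMSum fitness is the error-weighted combination of replicate fold changes, kanamycin against none, normalised to wild type.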

Sequence | self-splicing fitness (ln) (30 °C) | self-splicing fitness (ln) (37 °C)
AUCGAGCAAUAUUACGGGUU | -3.65 ± 0.23 | -2.32 ± 0.2
CAAGAGCAAUAUUACGUCAU | -4.3 ± 0.24 | -3.57 ± 0.17
GUAGAGCAAUAUUACGGGGA | -3.54 ± 0.25 | -1.16 ± 0.29
GUGCAGCAAUAUUACGCCAA | -1.41 ± 0.14 | -1.72 ± 0.14
GCAUAGCAAUAUUACGCGGU | -3.29 ± 0.16 | -1.77 ± 0.16
GCGGAGCAAUAUUACGAACU |  | -0.902 ± 0.47
CAACAGCAAUAUUACGAGUA | -1.85 ± 0.1 | -1.04 ± 0.082
CGAGAGCAAUAUUACGAAAC | -2.91 ± 0.36 | -1.97 ± 0.48
CACCAGCAAUAUUACGCAUG | -1.29 ± 0.062 | -0.787 ± 0.07
CUCGAGCAAUAUUACGGGAA | -3.85 ± 0.35 | -2.42 ± 0.23
CUUCAGCAAUAUUACGACUU | -4.07 ± 0.29 | -2.34 ± 0.21
GUAUAGCAAUAUUACGAGCU | -2.42 ± 0.27 | -1.61 ± 0.3
GCGAAGCAAUAUUACGUUGC |  | -1.98 ± 0.2
UGAGAGCAAUAUUACGUUAC |  | -1.79 ± 0.3
CAGAAGCAAUAUUACGGGAC |  | -1.25 ± 0.35
GCUCAGCAAUAUUACGCUCC | -1.05 ± 0.15 | 0.283 ± 0.26
UGUAAGCAAUAUUACGAUUA | -0.52 ± 0.076 | 0.447 ± 0.089
UACGAGCAAUAUUACGACGU | -2.08 ± 0.23 | -2.12 ± 0.27
GUCGAGCAAUAUUACGCUCU | -1.61 ± 0.24 | -1.39 ± 0.23
UCCCAGCAAUAUUACGAGAA | -1.87 ± 0.18 | -0.452 ± 0.13
CUCUAGCAAUAUUACGUAGC | -3.51 ± 0.37 | -3.53 ± 0.46
CUUUAGCAAUAUUACGACUG | -0.867 ± 0.094 | 0.418 ± 0.15
UUAGAGCAAUAUUACGGACA | -2.08 ± 0.13 | -0.655 ± 0.16
CGCAAGCAAUAUUACGGAAU | -3.63 ± 0.15 | -2.77 ± 0.18
CCAUAGCAAUAUUACGCUCG | -1.69 ± 0.1 | -0.407 ± 0.13

Sequence | self-splicing fitness (ln) (30 °C) | self-splicing fitness (ln) (37 °C)
UUGAAGCAAUAUUACGCGGG | -1.95 ± 0.1 | -0.668 ± 0.12
GUGGAGCAAUAUUACGCGCG | -1.79 ± 0.25 | -2.11 ± 0.31
AUAAAGCAAUAUUACGUAAU | -0.762 ± 0.081 | -0.869 ± 0.094
AUCAAGCAAUAUUACGUUCU | -0.858 ± 0.092 | -0.459 ± 0.12
CUCUAGCAAUAUUACGCUUG | -3.57 ± 0.24 | -3.45 ± 0.42
UCACAGCAAUAUUACGACAA | -1.3 ± 0.13 | -0.0758 ± 0.096
GGUCAGCAAUAUUACGUCCU | -2.63 ± 0.31 | -1.85 ± 0.29
GUAUAGCAAUAUUACGGCUA | -0.758 ± 0.13 | -0.383 ± 0.11
UGUUAGCAAUAUUACGACUC | -1.01 ± 0.19 | -0.182 ± 0.28
UCUCAGCAAUAUUACGAGGU |  | -1.53 ± 0.25
CGGGAGCAAUAUUACGAACU |  | -1.25 ± 0.45
ACUGAGCAAUAUUACGUAGG | -2.14 ± 0.14 | -1.27 ± 0.18
CCGCAGCAAUAUUACGUGGA | -3.51 ± 0.23 | -2.43 ± 0.22
AAGGAGCAAUAUUACGGCAG | -2.86 ± 0.33 | -1.75 ± 0.32
ACUCAGCAAUAUUACGGAAG | -0.707 ± 0.088 | -0.89 ± 0.13
GGUAAGCAAUAUUACGUCUU | -0.148 ± 0.1 | -0.802 ± 0.12
UCAGAGCAAUAUUACGCCCU |  | -2.21 ± 0.39
GAUUAGCAAUAUUACGUAGU | -3.06 ± 0.15 | -1.34 ± 0.12
GUGAAGCAAUAUUACGUCAU | -3.04 ± 0.2 | -2.68 ± 0.28
CCUGAGCAAUAUUACGGGGA | -3.07 ± 0.15 | -3.37 ± 0.2
GAAGAGCAAUAUUACGCAAG | -3.6 ± 0.39 | -2.68 ± 0.36
UGGAAGCAAUAUUACGGGUG | -1.07 ± 0.063 | -0.839 ± 0.083
UCGUAGCAAUAUUACGAUGA | -0.769 ± 0.12 | -0.601 ± 0.13
UCGUAGCAAUAUUACGUACG | -3.07 ± 0.24 | -1.96 ± 0.19
AGGCAGCAAUAUUACGCUUC |  | -1.31 ± 0.28

Sequence | self-splicing fitness (ln) (30 °C) | self-splicing fitness (ln) (37 °C)
GAAGAGCAAUAUUACGGAGC |  | -1.64 ± 0.37
GCCUAGCAAUAUUACGCGCG | -1.66 ± 0.23 | -1.18 ± 0.22
UCCAAGCAAUAUUACGGUGG | -2.08 ± 0.079 | -0.995 ± 0.096
UCACAGCAAUAUUACGCGUG | -2.87 ± 0.14 | -2.13 ± 0.14
UGUGAGCAAUAUUACGUUAG | -2.17 ± 0.25 | -2.84 ± 0.34
ACCAAGCAAUAUUACGAGAA | -2.87 ± 0.34 | -2.32 ± 0.3
GCACAGCAAUAUUACGAACG | -1.53 ± 0.1 | -0.558 ± 0.13
UAGAAGCAAUAUUACGAUAA | -1.05 ± 0.11 | -0.854 ± 0.12
UUGCAGCAAUAUUACGCAAG | -1.92 ± 0.16 | -2.89 ± 0.36
GAUCAGCAAUAUUACGGCGC | -0.52 ± 0.11 | 0.0329 ± 0.14
UGUCAGCAAUAUUACGGCAG | -1.55 ± 0.11 | -0.219 ± 0.13
GUCCAGCAAUAUUACGAAGG | -1.34 ± 0.24 | -1.66 ± 0.28
GGUGAGCAAUAUUACGAGUU | -2.39 ± 0.27 | -0.657 ± 0.16
CCUCAGCAAUAUUACGAAAA | -2.77 ± 0.22 | -2.26 ± 0.33
UGUUAGCAAUAUUACGGUGU | -2.57 ± 0.17 | -1.92 ± 0.18
CUCAAGCAAUAUUACGCGCC | -1.95 ± 0.32 | -1.15 ± 0.26
GCUUAGCAAUAUUACGGAGC | -2.97 ± 0.19 | -2.57 ± 0.41
GAGUAGCAAUAUUACGCUAA | -1.92 ± 0.15 | -1.97 ± 0.2
UGUGAGCAAUAUUACGCCCA | -0.902 ± 0.39 | -1.3 ± 0.36
UGACAGCAAUAUUACGCACC | -1.38 ± 0.12 | -0.767 ± 0.17
ACCCAGCAAUAUUACGUGCG | -3.12 ± 0.13 | -1.85 ± 0.098
CAUAAGCAAUAUUACGUAUU | -3.24 ± 0.19 | -3.09 ± 0.19
AUUCAGCAAUAUUACGCGAC | -2.38 ± 0.23 | -0.937 ± 0.18
CUUAAGCAAUAUUACGAUCU | -3.14 ± 0.37 | -1.48 ± 0.31
CUGAAGCAAUAUUACGUCGA | -2.2 ± 0.17 | -1.57 ± 0.23

Sequence | self-splicing fitness (ln) (30 °C) | self-splicing fitness (ln) (37 °C)
CGAAAGCAAUAUUACGACAC | -2.69 ± 0.18 | -1.56 ± 0.26
CGGAAGCAAUAUUACGCCCC | -1.49 ± 0.39 | 
UCGAAGCAAUAUUACGCCAA | -2.4 ± 0.27 | -2.2 ± 0.37
CGCAAGCAAUAUUACGCAGU | -3.23 ± 0.17 | -2.62 ± 0.21
GAAUAGCAAUAUUACGGCGA | -1.11 ± 0.11 | -0.3 ± 0.11
UGCAAGCAAUAUUACGCUGC | -3.62 ± 0.29 | -2.4 ± 0.3
GGCGAGCAAUAUUACGACUC | -0.185 ± 0.14 | 0.173 ± 0.24
UCACAGCAAUAUUACGCCGU | -4.25 ± 0.46 | -3.02 ± 0.35
GUGAAGCAAUAUUACGCUCU | -1.79 ± 0.12 | -0.652 ± 0.13
GGUCAGCAAUAUUACGUGGU | -2.54 ± 0.18 | -2.17 ± 0.23
CCCGAGCAAUAUUACGAAUU |  | -2.44 ± 0.35
CCUCAGCAAUAUUACGGAUG | -0.811 ± 0.066 | -0.682 ± 0.087
GUUGAGCAAUAUUACGUGCA | -1.65 ± 0.45 | -0.908 ± 0.28
UCACAGCAAUAUUACGUAAA | -2.14 ± 0.069 | -1.18 ± 0.084
AUGCAGCAAUAUUACGGGGG | -3.09 ± 0.18 | -1.9 ± 0.16
UACGAGCAAUAUUACGGCGA | -1.39 ± 0.15 | -0.508 ± 0.15
AGACAGCAAUAUUACGGAAU | -3.47 ± 0.14 | -2.29 ± 0.17
CGUUAGCAAUAUUACGGAGA | -2.64 ± 0.4 | -1.53 ± 0.43
UUGCAGCAAUAUUACGUUUU | -3.97 ± 0.22 | -1.85 ± 0.13
AGCGAGCAAUAUUACGGUGA | -3.59 ± 0.21 | -2.77 ± 0.15
AGCGAGCAAUAUUACGGGCU |  | -1.59 ± 0.24
GUAAAGCAAUAUUACGGACC | -1.15 ± 0.13 | -0.652 ± 0.24
AACUAGCAAUAUUACGCGGC | -3.01 ± 0.19 | -3.27 ± 0.22
CGCGAGCAAUAUUACGCCAC | -3.41 ± 0.47 | 
